From US20260250341A1
Numbering of substitutions follows the chain as printed. Names and notes keep the numbering of the source. Each block holds one binder with its values, some of them ahead of it.

Experiments:
[1] = molecular target: Recombinant Human FGFR1 alpha (IIIc) Fc Chimera Protein (R&D systems, 658-FR-050) (human) (UniProt P11362); test: ELISA: FGFR1-Fc coated at 0.5 ug/ml, FGF sample at 80 ng/ml, biotinylated anti-FGF antibody BAM233 and streptavidin-HRP, blank subtracted; sample kept 48 h at 37 C
Sequence of Recombinant Human FGFR1 alpha (IIIc) Fc Chimera Protein (R&D systems, 658-FR-050) (human) (P11362 22-376, change not shown): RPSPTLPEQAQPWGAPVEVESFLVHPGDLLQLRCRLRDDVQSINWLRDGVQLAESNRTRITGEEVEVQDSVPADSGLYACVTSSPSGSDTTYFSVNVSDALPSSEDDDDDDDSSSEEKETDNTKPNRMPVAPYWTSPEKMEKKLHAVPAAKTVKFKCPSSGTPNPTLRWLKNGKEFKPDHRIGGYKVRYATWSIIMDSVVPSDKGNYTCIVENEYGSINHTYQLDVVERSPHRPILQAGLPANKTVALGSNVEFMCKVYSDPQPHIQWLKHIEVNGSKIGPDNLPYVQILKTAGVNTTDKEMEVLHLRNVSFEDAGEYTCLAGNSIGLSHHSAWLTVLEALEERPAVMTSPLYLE

[2] = molecular target: Recombinant Human FGFR1 alpha (IIIc) Fc Chimera Protein (R&D systems, 658-FR-050) (human) (UniProt P11362); test: ELISA: FGFR1-Fc coated at 0.5 ug/ml, FGF sample at 80 ng/ml, biotinylated anti-FGF antibody BAM233 and streptavidin-HRP, blank subtracted; sample kept 0 h at 37 C
[3] = molecular target: Recombinant Human FGFR1 alpha (IIIc) Fc Chimera Protein (R&D systems, 658-FR-050) (human) (UniProt P11362); test: ELISA: FGFR1-Fc coated at 0.5 ug/ml, FGF sample at 80 ng/ml, biotinylated anti-FGF antibody BAM233 and streptavidin-HRP, blank subtracted; sample kept 6 h at 37 C
[4] = molecular target: Recombinant Human FGFR1 alpha (IIIc) Fc Chimera Protein (R&D systems, 658-FR-050) (human) (UniProt P11362); test: ELISA: FGFR1-Fc coated at 0.5 ug/ml, FGF sample at 80 ng/ml, biotinylated anti-FGF antibody BAM233 and streptavidin-HRP, blank subtracted; sample kept 24 h at 37 C

Absorbance (450 nm) (absorbance (450 nm)) [1]: 0.6 | Absorbance (450 nm) (absorbance (450 nm)) [2]: 2.1 | Absorbance (450 nm) (absorbance (450 nm)) [3]: 0.9 | Absorbance (450 nm) (absorbance (450 nm)) [4]: 0.7
B1: FGF320 (FGF1 + FGF2-CHIMERA_Pig) (ligand)
chain: MANYKKPKLLYCSNGGHFLRIHPDGRVDGVREKSDPHIKLQLQAEERGVVSIKGVCANRYLAMDTSGLLYGSQTPSEECLFLERLEENHYNTYTSKKHAEKNWFVGLKKNGSCKRGPRTHYGQKAILFLPLPV

Absorbance (450 nm) (absorbance (450 nm)) [1]: 2.3 | Absorbance (450 nm) (absorbance (450 nm)) [2]: 2.5 | Absorbance (450 nm) (absorbance (450 nm)) [3]: 2.4 | Absorbance (450 nm) (absorbance (450 nm)) [4]: 2.3
B2: FGF323 (FGF1 + FGF2-CHIMERA_Pig_C12S; Q43I; A62C; H89G; C113A) (ligand)
chain: B1 chain with C12S, Q43I, A62C, H89G, C113A
